Laboratory results from patent US7740850B2, “PDGFRβ-specific antibodies” (ImClone, LLC, priority 2007, dated 2010).

B1: 1B3: human anti-mouse PDGFRβ antibody from Fab phage display library, human κ/γ1 constant regions; SEQ ID NOS in Table 1 (antibody, listed as Homo sapiens, V domains shown)
VH: QVQLQESGGGLVKPGGSLRLSCAASGFTFSSYSMNWVRQAPGKGLEWVSSISSSSSYIYYADSVKGRFTISRDNSKNTLYLQMNSLRAEDTAVYYCAKGGRPLLVFDFWGQGTLVTVS
VL: EIVMTQSPGTLSLSPGERATLSCRASQSVSSSYLAWYQQKPGQAPRLLIYDASKRATGIPARFSGSGSGTDFTLTISTLESEDSAVYYCQQRGYWPPITFGQGTRLEIKR
modifications: human kappa/gamma1 constant regions
B2: 2C5: PDGFRβ-specific human antibody binding both human and murine PDGFRβ; SEQ ID NOS in Table 1 (antibody, listed as Homo sapiens, V domains shown)
VH: QVQLVQSGAEVKKPGSSVKVSCKASGGTFSSYAISWVRQAPGQGLEWMGRIIPILGIANYAQKFQGRVTITADKSTSTAYMELSSLRSEDTAVYYCARDMGSRNYYYFYWGQGTLVTVSS
VL: EIVLTQSPATLSLSPGERATLSCRASQSVGRYLAWYQQKPGQAPRLLIYGASNRATGIPARFSGSGSGTDFTLTISSLEPEDFAVYYCQQRSNWPLTFGGGTKVEIK

Key:
[1] = tested on: SK-OV-3 ovarian carcinoma xenograft; assay: Subcutaneous tumor xenograft model; format: in vivo, mouse
Experimental: Six xenograft models, SK-OV-3, OV-CAR-8, BxPC-3, OV-CAR-5, Caki-1 and NCI-H460 (A to F, respectively) were used to examine the effects of 1B3 on xenograft tumors in athymic nude mice. Mice with established tumors (˜250-300 mm^3) were randomly grouped and treated with 1B3, normal human IgG, or saline by intraperitoneal injection twice weekly (except for BxPC-3 model where the mice were treated three times a week) at the dose indicated. Tumor volumes were measured twice a week and are presented as mean±SEM. *1 indicates the loss of one mouse due to severe illness. 1B3 binds to mouse, but not human, PDGFRβ. Accordingly, the observed responses to treatment result from inhibition of stimulation of host cells.
Antitumor activity of anti-mPDGFRβ antibody in tumor xenograft models. Six human xenograft tumor models, including three ovarian carcinoma (SK-OV-3, OV-CAR-5 and OV-CAR-8), one pancreatic carcinoma (BxPC3), one lung carcinoma (NCI-H460), and one kidney carcinoma (Caki-1), were used to assess the antitumor activity of 1B3 in vivo. […] Tumor sizes and mouse body weight were measured twice a week. Tumor volume was calculated using the formula: π/6×(length×width^2), where length=longest diameter and width=diameter perpendicular to length. The ratio of average tumor volume in the treatment group versus that in the control group (T/C %) was calculated. […]

PDGFRβ in NIH/3T3 cells = target: T1, PDGFRβ in NIH/3T3 cells (Mus musculus, UniProt P05622); assay: PDGF-BB-stimulated receptor phosphorylation (Western blot); format: cell-based
T1 construct: Receptor phosphorylation was determined for NIH/3T3 and D122 cells; endogenous in cells; host or cells: NIH/3T3
T1 sequence (P05622 32-1098): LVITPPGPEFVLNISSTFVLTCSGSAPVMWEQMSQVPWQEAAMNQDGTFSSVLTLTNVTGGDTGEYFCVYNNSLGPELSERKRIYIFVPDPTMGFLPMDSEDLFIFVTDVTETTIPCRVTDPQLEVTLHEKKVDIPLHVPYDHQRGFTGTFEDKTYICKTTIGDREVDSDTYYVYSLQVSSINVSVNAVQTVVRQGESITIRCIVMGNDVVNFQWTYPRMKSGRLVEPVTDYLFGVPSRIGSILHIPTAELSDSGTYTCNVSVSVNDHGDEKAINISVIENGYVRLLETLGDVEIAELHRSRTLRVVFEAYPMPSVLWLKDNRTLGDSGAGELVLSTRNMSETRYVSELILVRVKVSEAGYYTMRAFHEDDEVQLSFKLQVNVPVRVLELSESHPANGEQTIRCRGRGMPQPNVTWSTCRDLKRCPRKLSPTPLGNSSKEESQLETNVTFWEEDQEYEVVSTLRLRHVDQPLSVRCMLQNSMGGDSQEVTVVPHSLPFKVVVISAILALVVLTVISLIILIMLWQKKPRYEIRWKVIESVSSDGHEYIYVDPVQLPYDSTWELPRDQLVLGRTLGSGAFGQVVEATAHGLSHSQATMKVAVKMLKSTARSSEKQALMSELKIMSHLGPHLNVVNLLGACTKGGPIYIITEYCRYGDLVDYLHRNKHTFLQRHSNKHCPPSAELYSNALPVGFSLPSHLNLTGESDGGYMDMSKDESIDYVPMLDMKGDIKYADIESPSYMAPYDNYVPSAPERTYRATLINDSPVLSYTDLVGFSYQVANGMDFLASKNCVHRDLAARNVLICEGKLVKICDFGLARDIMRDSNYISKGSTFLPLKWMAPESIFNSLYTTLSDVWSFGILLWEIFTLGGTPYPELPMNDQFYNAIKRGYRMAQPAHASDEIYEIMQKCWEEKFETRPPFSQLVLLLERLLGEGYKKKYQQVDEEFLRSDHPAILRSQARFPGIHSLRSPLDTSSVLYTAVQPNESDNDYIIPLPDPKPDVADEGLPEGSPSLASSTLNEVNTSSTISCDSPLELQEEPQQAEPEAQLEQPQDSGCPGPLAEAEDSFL
Experimental: (§1) Receptor phosphorylation was determined for NIH/3T3 and D122 cells. The cells were plated onto 6 cm dishes and grown to 70-80% confluence, after which the cells were washed twice in PBS and cultured overnight in serum free medium. […] The cells were lysed in lysis buffer (50 mM Tris-HCl, pH 7.4, 150 mM NaCl, 1% TritonX-100, 1 mM EDTA, 1 mM phenylmethylsulfonyl fluoride, 0.5 mM Na3VO4 1 μg/ml leupeptin, 1 μg/ml pepstatin, and 1 μg/ml aprotinin) for 1 h, followed by centrifugation of the lysate at 12,000 rpm for 10 min at 4° C. The receptors were immunoprecipitated from the cell lysate supernatant by an anti-mPDGFRβ antibody (R&D Systems Inc), followed by the addition of 20 μl of ProA/G-sepharose beads. The precipitated receptor proteins were resolved on a 4-12% NuPAGE Bis-Tris gel and transferred to a polyvinylidene difluoride membrane. Phospho-mPDGFRβ protein was detected on the blot using an anti-phospho-tyrosine antibody-HRP conjugate (Santa Cruz Biotech, Santa Cruz, Calif.). Total receptor proteins loaded on the gel were assayed with an antibody to mPDGFRβ.

PDGFRβ in D122 cells = target: T2, PDGFRβ in D122 cells (Mus musculus, UniProt P05622); assay: as above; format: cell-based
T2 construct: endogenous in cells; host or cells: D122
T2 sequence (P05622 32-1098): as above
Experimental: as §1

WS-1 cells = assay: PDGF-BB-stimulated cell migration, two-chamber technique; format: cell-based; settings: antibody 30 μg/ml, PDGF-BB 100 ng/ml, 4 hours
Experimental: (§2) 2C5 inhibits PDGF-BB-stimulated cell migration in a cell-based migration assay. Two-chamber technique was used to determine the inhibitory ability of 2C5 in cell migration with NCI-H460, OVCAR8, WS-1 and U-118 cell lines. Collagen (100 μg/ml) was added to the up chamber (100 μl) and the lower chamber (150 μl) and incubated at 37° C. for 1 hour. After washing the chambers twice with PBS, 100 μl of starved cells (estimated 0.5-10×10^6/ml in serum-free medium) were added to the up chamber and 150 μl of serum-free medium was added to the lower chamber and then incubated at 37° C. for 4 hours. […] In 2C5 wells, 2C5 were added into the up chamber at a final concentration of 30 μg/ml. Non-migrated cells in the up chamber were scraped from the membrane. After washing three times with PBS, migrated cells on the membrane of the lower chamber side were fixed with 4% formalin and stained with Hoechst (4 μg/ml). The results were captured and cells were counted under fluorescence microscopy.

U-118 cells = assay: as above; format: cell-based; settings: antibody 30 μg/ml, PDGF-BB 100 ng/ml, 4 hours
Experimental: as §2

OVCAR8 cells = assay: as above; format: cell-based, human; settings: antibody 30 μg/ml, PDGF-BB 100 ng/ml, 4 hours
Experimental: as §2

NCI-H460 cells = assay: as above; format: cell-based, human; settings: antibody 30 μg/ml, PDGF-BB 100 ng/ml, 4 hours
Experimental: as §2

h5β = h5β (Homo sapiens, UniProt P09619); assay: Epitope mapping; format: binding; settings: ✓ / X, key not given
Sequence of h5β (P09619 33-532 limits assumed): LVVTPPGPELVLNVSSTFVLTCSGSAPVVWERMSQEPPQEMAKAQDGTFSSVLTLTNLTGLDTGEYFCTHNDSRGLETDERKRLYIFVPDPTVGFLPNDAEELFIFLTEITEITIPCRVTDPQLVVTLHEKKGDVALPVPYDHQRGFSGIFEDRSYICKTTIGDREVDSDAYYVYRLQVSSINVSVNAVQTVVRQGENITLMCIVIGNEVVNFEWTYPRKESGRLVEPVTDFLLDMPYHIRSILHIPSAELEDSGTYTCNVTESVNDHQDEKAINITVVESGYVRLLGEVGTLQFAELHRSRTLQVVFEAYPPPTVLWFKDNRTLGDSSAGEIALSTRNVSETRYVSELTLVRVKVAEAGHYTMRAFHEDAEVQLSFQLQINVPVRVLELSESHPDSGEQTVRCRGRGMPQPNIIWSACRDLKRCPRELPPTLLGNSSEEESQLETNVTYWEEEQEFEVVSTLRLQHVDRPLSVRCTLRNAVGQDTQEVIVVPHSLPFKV
Experimental: Various chimeric constructs of PDGFRβ and PDGFRα were first made by domain swapping, starting from N-terminus to C-terminus with PDGFRβ domain(s) replacing PDGFRα domain(s). The PDGFRβ/α chimera were tested for the ability of 2C5 binding. Shorter versions of PDGFRβ, including D1D2, D2D3 and D1D2D3, were then made to confirm the 2C5 binding domains on PDGFRβ.

PDGFRβ = assay: Epitope mapping, binding domains; settings: chimeric and shorter PDGFRβ constructs
Experimental: (§3) 2C5 binds to domain 1 (D1) and domain 2 (D2) of PDGFRβ. Various chimeric constructs of PDGFRβ and PDGFRα were first made by domain swapping, starting from N-terminus to C-terminus with PDGFRβ domain(s) replacing PDGFRα domain(s). The PDGFRβ/α chimera were tested for the ability of 2C5 binding. Shorter versions of PDGFRβ, including D1D2, D2D3 and D1D2D3, were then made to confirm the 2C5 binding domains on PDGFRβ.

β1-2 = target: T3, β1-2 (Homo sapiens, UniProt P09619); assay: Epitope mapping, shorter version of PDGFRβ (D1D2); format: binding; settings: ✓ / X, key not given
T3 construct: Shorter versions of PDGFRβ, including D1D2, D2D3 and D1D2D3, were then made; made in house
T3 sequence (P09619 33-210): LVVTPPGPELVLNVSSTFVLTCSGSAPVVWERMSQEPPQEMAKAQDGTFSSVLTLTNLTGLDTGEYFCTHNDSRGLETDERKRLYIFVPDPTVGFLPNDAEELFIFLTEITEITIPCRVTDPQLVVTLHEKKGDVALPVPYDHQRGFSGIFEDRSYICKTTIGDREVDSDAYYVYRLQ
Experimental: as §3

β1-3 = assay: Epitope mapping, shorter version of PDGFRβ (D1D2D3); format: binding; settings: ✓ / X, key not given
Experimental: as §3

Row | Molecule | tumor growth inhibition ([1]; 60 mg/kg i.p. twice weekly) | tumor growth inhibition ([1]; two lower doses (6, 20 mg/kg) i.p. twice weekly) | inhibition of PDGF-BB-stimulated receptor phosphorylation (PDGFRβ in NIH/3T3 cells) | inhibition of PDGF-BB-stimulated receptor phosphorylation (PDGFRβ in D122 cells) | inhibition of PDGF-BB-stimulated cell migration (WS-1 cells) | inhibition of PDGF-BB-stimulated cell migration (U-118 cells) | inhibition of PDGF-BB-stimulated cell migration (OVCAR8 cells) | inhibition of PDGF-BB-stimulated cell migration (NCI-H460 cells) | binding to h5β (h5β) | binding domains on PDGFRβ (PDGFRβ) | binding to β1-2 (β1-2) | binding to β1-3 (β1-3)
1 | B1 | completely blocked the tumor growth for up to 29 days | No tumor growth inhibition was observed | inhibited PDGF-BB-stimulated receptor phosphorylation in both NIH/3T3 and D122 cells in a dose dependent manner | inhibited PDGF-BB-stimulated receptor phosphorylation in both NIH/3T3 and D122 cells in a dose dependent manner | – | – | – | – | – | – | – | –
2 | B2 | – | – | – | – | inhibited PDGF-BB-stimulated cell migration completely | inhibited PDGF-BB-stimulated cell migration completely | inhibited PDGF-BB-stimulated cell migration completely | inhibited PDGF-BB-stimulated cell migration completely | ✓ | binds to PDGFRβ via both D1 and D2 of the receptor | ✓ | ✓
